Source: patent US8445240B2, “Termite enzymes and uses thereof for in vitro conversion of lignin-containing materials to fermentable products” (University of Florida Research Foundation, Inc., priority 2009, dated 2013)

Experiment: Glucose release from pine sawdust by recombinant enzymes and mixtures
Type: biochemical
Conditions: 2% w/v, 18 hrs, 37° C., pH 7
Experimental: All reactions were performed in 0.1 M sodium acetate buffer containing 10 mM calcium chloride (pH 7). The two feedstock substrates were pine sawdust (=lignin+cellulose+hemicellulose) and beechwood xylan (=lignin+hemicellulose). Feedstocks were tested at 2% w/v (10 mg in 0.5 mL buffer). Reactions were run for 18 hrs at 37° C. with shaking at 220 rpm in vented 1.5 mL plastic tubes.
Protein volumes used per assay were 10 μL of each of the Cell-1, β-glucosidase, and Laccase 6 recombinant protein preparations. These loading volumes provided 8.5, 7.9 and 2.0 μg of each protein, respectively, per reaction. The storage buffer for Cell-1 and β-glucosidase was 0.1 M sodium acetate, 0.15 M sodium chloride, and 0.5 M calcium chloride (pH 5.8). The storage buffer for Laccase 6 was 0.1M boric acid, phosphoric acid, and acetic acid (pH 7.0).
Reactions were stopped after 18 hours by the addition of 10 μL of 0.2 Methylene-diamine tetra-acetic acid and centrifuged for 5 min at 16,000×g. Glucose detection was performed in triplicate on 125 μL aliquots of each reaction supernatant. The entire experiment was replicated three times. Glucose release was measured using the Autokit Glucose reagent kit (Wako Chemical, Richmond, Va.) at a volume of 125 μL per determination. Glucose was quantified based on absorbance at 505 nm relative to glucose standard curves. Standard curves were prepared in eight serial dilutions downward from 0.6 mM in sodium acetate-calcium chloride reaction buffer.

B1: β-glucosidase: recombinant R. flavipes β-glucosidase, amino acid sequence SEQ ID NO.: 6 (protein)
chain: MRLQTVCFVIFVTAVFGADVDNETLFTFPEDFKLGAATASYQIEGGWNADGKGVNIWDKLTHERSQLVVDKSSGDVADDSYHLYKEDVKLLKNMGAQLYRFSISWARILPEGHDNKVNQAGIEYYNKLIDELLDNGIEPMVTMYHWDLPQTLQDLGGWPNRELAKYSENYARVLFQNFGDRVKLWLTFNEPLTFMDAYASETGMAPSIDTPGIGDYLAAHTVILAHANIYRMYEREFKEEQKGKVGIALNIHWCEPVTNSTKDVEACERYQQFNLGIYAHPIFSVEGDYPSVLKARVDANSVTEGYTTSRLPKFTTEEVDFIRGTHDFLGLNFYTAVTGADGVEGEPPSRYRDMGAITSQDPDWPQSASSWLRVVPWGFRKELNWIANEYGNPPIYITENGFSDYGGLNDTDRVLYYTEHLKEMLKANHIDEVNVVGYTTWRPVDNFEWLRGYTERFGIHEVNFNDPSRPRVPKESAKVLTEIFNTRRIPERFLD
modifications: Reticulitermes flavipes; amino acid sequence beta-glucosidase “contig 771”
glucose release from pine sawdust (in words): No glucose release was detectable
